# Measured values published in patent US20020137095A1 (RIKEN, published 2002).
# Columns and labels:
# [1] = target: T1, full-length mouse Reelin protein (mouse, UniProt Q60841 27-3461); experiment: cell adhesion assay after allowing for about 20% background, CR-50 at 20 µg/ml
# T1 construct: whole, on cells; Secreted protein; Forms homophilic complexes of unstated size; also called native Reelin; full-length Reelin
# [2] = target: T1, full-length mouse Reelin protein; experiment: cell adhesion assay after allowing for about 20% background, CR-50 at 50 µg/ml
# [3] = target: T1, full-length mouse Reelin protein; experiment: cell adhesion assay after allowing for about 20% background, CR-50 at 200 µg/ml
# [4] = target: the molecule itself; experiment: analytical gel filtration (Superdex-200), 0.15 M NaCl, pH 7.4, 40 µM sample
# Experimental: A FPLC gel filtration chromatography system (Pharmacia) was used for chromatography. This system was controlled by a computer FPLC director program (Pharmacia). The sample was loaded onto a Superdex-200 gel filtration column (separation range: 10 kDa to 600 kDa, Pharmacia), which had been pre-equilibrated with a buffer containing 20 mM sodium phosphate, pH 7.4, 0.15 M NaCl, and 5 mM DTT, and then eluted at flow rate of 0.5 ml/min. The sample concentration was adjusted to 40 μM.
# [5] = target: T1, full-length mouse Reelin protein; experiment: cell adhesion assay: Reelin-presenting cells on CR-50 epitope-coated dishes (200 or 50 µg/ml)
# Experimental: (A) Reelin-presenting cells on CR-50 epitope-coated dish (200 μg/ml). (B) Reelin-presenting cells on control-coated dish. (C) Histograms showing cell numbers in cell adhesion assay on CR-50 epitope-coated dishes (200 or 50 μg/ml) that are normalized to the control.
# The former supernatant contained full-length Reelin molecules and the latter one contained no Reelin. After nitrocellulose/methanol treatment, Petri dishes were coated overnight with each supernatant. Petri dishes coated with the CR-50 epitope were prepared by overnight incubation with recombinant CR-50 epitope proteins produced from E. coli cells. […] After incubation for 2 hours, each plate was washed with panning buffer (PBS containing 10% v/v FCS) 7 to 10 times until no floating cells remained. To examine the effect of CR-50 antibody on cell adhesion, the antibody was added to the culture medium from the beginning of incubation. Then, the cells remaining on the dishes were observed by a microscope connected to a computer-controlled camera. This experiment was repeated five times, and for each dish, five microscopic fields were scored.
# T1 sequence (Q60841 27-3461): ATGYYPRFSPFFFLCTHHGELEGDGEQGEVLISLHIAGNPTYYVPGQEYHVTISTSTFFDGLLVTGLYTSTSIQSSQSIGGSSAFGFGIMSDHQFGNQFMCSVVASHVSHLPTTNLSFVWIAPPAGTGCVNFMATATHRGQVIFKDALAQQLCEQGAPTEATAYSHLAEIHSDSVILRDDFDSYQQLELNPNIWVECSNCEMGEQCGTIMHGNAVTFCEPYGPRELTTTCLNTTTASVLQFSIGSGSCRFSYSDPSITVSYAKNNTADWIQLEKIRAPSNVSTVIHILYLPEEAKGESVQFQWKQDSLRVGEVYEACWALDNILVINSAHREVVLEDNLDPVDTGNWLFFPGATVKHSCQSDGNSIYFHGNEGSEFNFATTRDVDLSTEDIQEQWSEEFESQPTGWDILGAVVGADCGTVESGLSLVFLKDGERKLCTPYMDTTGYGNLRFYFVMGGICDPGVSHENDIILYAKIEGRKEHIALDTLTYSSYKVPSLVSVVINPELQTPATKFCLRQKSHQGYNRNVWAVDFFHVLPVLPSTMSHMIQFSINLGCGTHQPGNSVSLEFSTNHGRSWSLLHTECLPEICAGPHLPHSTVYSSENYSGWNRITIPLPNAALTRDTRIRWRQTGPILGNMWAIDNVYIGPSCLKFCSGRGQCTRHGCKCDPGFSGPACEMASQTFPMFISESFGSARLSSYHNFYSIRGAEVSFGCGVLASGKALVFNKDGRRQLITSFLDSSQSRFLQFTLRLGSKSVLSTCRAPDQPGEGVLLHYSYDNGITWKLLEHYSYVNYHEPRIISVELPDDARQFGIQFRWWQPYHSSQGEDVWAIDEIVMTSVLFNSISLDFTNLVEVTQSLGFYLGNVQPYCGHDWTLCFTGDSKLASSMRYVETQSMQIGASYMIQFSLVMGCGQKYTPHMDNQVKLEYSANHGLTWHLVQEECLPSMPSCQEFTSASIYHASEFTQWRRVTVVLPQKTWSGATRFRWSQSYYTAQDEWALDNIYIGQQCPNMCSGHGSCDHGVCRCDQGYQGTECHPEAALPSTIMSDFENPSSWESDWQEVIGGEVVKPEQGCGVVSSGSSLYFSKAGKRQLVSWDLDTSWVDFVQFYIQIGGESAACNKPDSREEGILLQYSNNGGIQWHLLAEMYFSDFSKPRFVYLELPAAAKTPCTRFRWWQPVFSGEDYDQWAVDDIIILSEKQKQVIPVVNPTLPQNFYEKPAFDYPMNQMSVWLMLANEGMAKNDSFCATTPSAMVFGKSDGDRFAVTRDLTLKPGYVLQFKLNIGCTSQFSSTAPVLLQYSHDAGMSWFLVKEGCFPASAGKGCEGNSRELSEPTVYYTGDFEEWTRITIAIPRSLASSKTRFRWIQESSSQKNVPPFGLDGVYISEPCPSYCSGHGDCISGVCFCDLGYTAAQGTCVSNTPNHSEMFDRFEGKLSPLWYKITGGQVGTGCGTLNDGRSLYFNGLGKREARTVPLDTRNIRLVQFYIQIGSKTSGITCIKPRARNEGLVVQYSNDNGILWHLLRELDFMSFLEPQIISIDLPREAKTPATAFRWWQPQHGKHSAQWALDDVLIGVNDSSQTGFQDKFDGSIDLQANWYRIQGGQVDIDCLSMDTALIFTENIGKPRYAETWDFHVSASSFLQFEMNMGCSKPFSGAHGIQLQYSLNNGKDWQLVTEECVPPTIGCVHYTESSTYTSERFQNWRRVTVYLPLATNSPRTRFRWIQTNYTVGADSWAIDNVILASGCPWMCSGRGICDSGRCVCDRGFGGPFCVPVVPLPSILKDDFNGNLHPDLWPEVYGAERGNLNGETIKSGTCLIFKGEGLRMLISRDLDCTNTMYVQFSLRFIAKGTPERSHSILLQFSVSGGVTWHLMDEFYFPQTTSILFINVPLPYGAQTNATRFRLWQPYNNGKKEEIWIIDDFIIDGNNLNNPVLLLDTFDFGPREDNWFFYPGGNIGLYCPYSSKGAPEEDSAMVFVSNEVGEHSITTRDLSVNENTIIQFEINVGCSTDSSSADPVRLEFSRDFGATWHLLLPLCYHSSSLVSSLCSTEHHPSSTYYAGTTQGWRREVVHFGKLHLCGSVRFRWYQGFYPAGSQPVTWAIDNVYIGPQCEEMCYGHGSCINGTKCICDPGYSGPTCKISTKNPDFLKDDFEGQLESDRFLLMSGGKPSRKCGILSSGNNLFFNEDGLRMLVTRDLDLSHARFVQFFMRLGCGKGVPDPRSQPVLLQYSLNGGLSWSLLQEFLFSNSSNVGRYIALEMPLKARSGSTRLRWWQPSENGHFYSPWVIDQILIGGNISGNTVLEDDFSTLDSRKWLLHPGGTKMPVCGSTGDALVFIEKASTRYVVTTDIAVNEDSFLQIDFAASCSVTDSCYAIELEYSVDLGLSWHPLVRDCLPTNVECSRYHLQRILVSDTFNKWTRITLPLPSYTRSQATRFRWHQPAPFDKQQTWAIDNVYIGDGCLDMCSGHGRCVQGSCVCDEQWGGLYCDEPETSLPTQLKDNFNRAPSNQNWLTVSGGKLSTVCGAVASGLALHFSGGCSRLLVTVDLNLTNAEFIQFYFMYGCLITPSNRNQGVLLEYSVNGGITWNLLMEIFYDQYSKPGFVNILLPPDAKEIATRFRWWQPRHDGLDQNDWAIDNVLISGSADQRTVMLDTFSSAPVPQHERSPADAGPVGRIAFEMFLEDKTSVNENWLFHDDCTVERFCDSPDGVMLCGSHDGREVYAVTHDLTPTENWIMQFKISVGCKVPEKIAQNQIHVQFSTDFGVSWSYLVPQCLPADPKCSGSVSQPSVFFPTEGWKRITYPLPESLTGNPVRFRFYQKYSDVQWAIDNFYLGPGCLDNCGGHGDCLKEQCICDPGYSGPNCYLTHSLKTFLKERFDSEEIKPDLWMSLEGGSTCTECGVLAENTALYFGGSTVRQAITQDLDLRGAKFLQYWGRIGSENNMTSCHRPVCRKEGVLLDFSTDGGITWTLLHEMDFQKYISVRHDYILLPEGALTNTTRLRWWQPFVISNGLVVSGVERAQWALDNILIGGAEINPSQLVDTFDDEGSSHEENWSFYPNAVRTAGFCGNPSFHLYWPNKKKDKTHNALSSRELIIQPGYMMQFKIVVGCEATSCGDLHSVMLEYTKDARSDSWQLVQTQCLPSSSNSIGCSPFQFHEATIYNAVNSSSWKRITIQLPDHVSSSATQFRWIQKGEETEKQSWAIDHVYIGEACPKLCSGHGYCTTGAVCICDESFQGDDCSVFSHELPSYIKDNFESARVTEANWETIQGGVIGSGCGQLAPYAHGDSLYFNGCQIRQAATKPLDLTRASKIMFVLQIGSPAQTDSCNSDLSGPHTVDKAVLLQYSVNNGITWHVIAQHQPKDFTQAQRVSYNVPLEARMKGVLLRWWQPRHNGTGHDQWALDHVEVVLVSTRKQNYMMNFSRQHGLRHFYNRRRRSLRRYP
"specific binding left, fraction of the control (fraction of specific binding) [1]","specific binding left, fraction of the control (fraction of specific binding) [2]","specific binding left, fraction of the control (fraction of specific binding) [3]",binding result [5],Molecule,binding result [4]
0.33,0.25,0.1,,CR-50 antibody,
,,,binds,"recombinant CR-50 epitope fragment of Reelin (residues 230-346) with C-terminal His-tag, from E. coli (other, not shown: small tags and cut ends, Under physiological conditions it forms a homopolymer of more than 600 kDa (more than 40 molecules of about 15 kDa)) EQCGTIMHGNAVTFCEPYGPRELTTTCLNTTTASVLQFSIGSGSCRFSYSDPSITVSYAKNNTADWIQLEKIRAPSNVSTVIHILYLPEEAKGESVQFQWKQDSLRVGEVYEACWAL",binds
